Entries after “also recorded” stand apart in the source; their conditions may differ.
Assays:
[1] = test system: primary oligodendrocyte (OL) cultures; experiment: LDH assay of cell death in primary oligodendrocyte cultures exposed to normoxia or OGD with recombinant CCL20; format: cell-based, rat
Protocol: Mixed glial cultures were prepared from postnatal day 2 rats and oligodendrocytes (OL) cultures were purified using the shaking and differential adherence method as previously described (26). Cell preparations were seeded (1.5×10^7) into flasks, OLs were purified from these preparations after 8 DIV and plated onto glass poly-l-lysine-treated coverslips. Following a 7 day proliferation period, the PDGF-AA was withdrawn for 5 days to induce OL differentiation into the mature phenotype. Experiments were conducted within three weeks.
Primary cells previously seeded onto glass coverslips were randomly assigned to one of five conditions: OGD (DMEM without glucose)+vehicle, OGD+CCL20 (200 ng; Rad Systems, Minneapolis, Minn.), normoxia (DMEM with glucose) only, normoxia+vehicle, or normoxia+CCL20. Cells undergoing OGD were placed in an airtight hypoxic chamber. The chamber was then flushed with hypoxic gas (95% N2, 4% CO2, 1% O2; Airgas, Tampa, Fla.) for 15 min and […] for the duration of exposure. Normoxic cells were maintained in a standard tissue culture incubator. Cultures were subjected to OGD or normoxia for 24 h at 37° C. The medium from each well was collected, clarified by centrifugation, and lactate dehydrogenase (LDH) analyzed immediately.
Cell death in culture was determined using the lactate dehydrogenase (LDH) assay (Takara Bio, Inc., Madison, Wis.). Briefly, 100 μl of tissue culture medium from each experimental group was added to a 96-well plate and 100 μl of LDH reagent was added to each well. Plates were incubated for 30 min at 25° C. and absorbances were read on a microplate reader at a 548 nm wavelength. The absorbance of medium only wells was subtracted from the total absorbance of each experimental treatment group to control for background LDH activity.
Briefly, rat primary neurons or OLs were exposed to normoxia or OGD in the presence of 200 ng recombinant CCL20 or vehicle. Following the exposure, culture medium was collected and the LDH assay was performed to assess cellular death.

[2] = test system: primary neuronal cultures; experiment: LDH assay of cell death in primary neuronal cultures exposed to normoxia or OGD with recombinant CCL20; format: cell-based, rat; conditions: 200 ng recombinant CCL20, 24 h
Protocol: Cortices from E18 rat embryos were dissociated with a solution of 0.25% trypsin/2.21 mM EDTA for 10 min at 37° C. The solution was triturated to obtain a uniform single cell suspension. After centrifugation, the supernatant was aspirated off and the cells were re-suspended in DMEM (Mediatech, Mannasas, Va.). Trypan blue exclusion was used to count viable cells and 3×10^5 cells in a final volume of 1 mL were seeded on 24 well poly-L-lysine treated culture plates. After 24 h, the medium was changed to neurobasal complete (neurobasal medium (Invitrogen), B-27 (Invitrogen), 0.05 mM L-glutamine (Mediatech) and cells were cultured for 7 days. Cells were used for oxygen glucose deprivation (OGD) experiments following one medium change, as determined by experimental grouping.
Primary cells previously seeded onto glass coverslips were randomly assigned to one of five conditions: OGD (DMEM without glucose)+vehicle, OGD+CCL20 (200 ng; Rad Systems, Minneapolis, Minn.), normoxia (DMEM with glucose) only, normoxia+vehicle, or normoxia+CCL20. […] The medium from each well was collected, clarified by centrifugation, and lactate dehydrogenase (LDH) analyzed immediately.
Cell death in culture was determined using the lactate dehydrogenase (LDH) assay (Takara Bio, Inc., Madison, Wis.). […] Plates were incubated for 30 min at 25° C. and absorbances were read on a microplate reader at a 548 nm wavelength. […]

## CCL20: recombinant CC chemokine ligand 20 (CCL20, MIP-3α), purchased chemokine applied at 200 ng to cultured cells
[1]; normoxia, 200 ng recombinant CCL20, 24 h, vs normoxia without CCL20
  LDH release / cellular toxicity in OL cultures: elicited toxicity to OLs; also recorded: increased LDH release
[1]; oxygen glucose deprivation (OGD), 200 ng recombinant CCL20, 24 h, relative to OGD alone
  LDH release / cell death in OL cultures: significantly increased; also recorded: further enhanced OGD-induced cellular toxicity
[1]; summary statement, conditions not given
  toxicity to cultured oligodendrocytes: toxic to cultured oligodendrocytes
[2]; normoxia
  LDH release / neuronal viability: did not affect neuronal viability; also recorded: had no effect
[2]; oxygen glucose deprivation (OGD), relative to OGD alone
  LDH release / cell death in neurons: significantly increased; also recorded: increased lactate dehydrogenase (LDH) release

Reference: patent publication US20150030609A1, “DIAGNOSIS AND TREATMENT OF TRAUMATIC BRAIN INJURY” (UNIVERSITY OF SOUTH FLORIDA, priority 2011, published 2015)
